This assay deals with purified SOS3 (Arabidopsis thaliana, UniProt O81223 1-222). Put plainly: other fluorescence titration.
Sequence of purified SOS3 (O81223 whole entry): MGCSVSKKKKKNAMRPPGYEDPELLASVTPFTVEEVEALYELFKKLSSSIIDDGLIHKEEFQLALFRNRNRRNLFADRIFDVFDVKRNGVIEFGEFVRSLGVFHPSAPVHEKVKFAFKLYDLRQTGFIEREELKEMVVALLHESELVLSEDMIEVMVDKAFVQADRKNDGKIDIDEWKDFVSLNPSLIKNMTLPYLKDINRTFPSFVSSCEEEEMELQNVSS

In the case of KKRILEYTKYEMLNKALRAFQDLGD (peptide, UniProt Q9LKW9 460-484, looked up) [synthetic peptide spanning the S3BD of SOS1, residues K460 to D484], the binding result is “binds”.
